In this assay the target is T1, NS5A(Δ32), N-terminally truncated hepatitis C virus non-structural 5A protein (hepatitis C virus (genotype 1b, J4 …, UniProt O92972 2005-2419)).
T1 construct: source: E. coli BL21 pLysS (DE3), purified (Ni-NTA, gel filtration on Superdex75)
T1 sequence: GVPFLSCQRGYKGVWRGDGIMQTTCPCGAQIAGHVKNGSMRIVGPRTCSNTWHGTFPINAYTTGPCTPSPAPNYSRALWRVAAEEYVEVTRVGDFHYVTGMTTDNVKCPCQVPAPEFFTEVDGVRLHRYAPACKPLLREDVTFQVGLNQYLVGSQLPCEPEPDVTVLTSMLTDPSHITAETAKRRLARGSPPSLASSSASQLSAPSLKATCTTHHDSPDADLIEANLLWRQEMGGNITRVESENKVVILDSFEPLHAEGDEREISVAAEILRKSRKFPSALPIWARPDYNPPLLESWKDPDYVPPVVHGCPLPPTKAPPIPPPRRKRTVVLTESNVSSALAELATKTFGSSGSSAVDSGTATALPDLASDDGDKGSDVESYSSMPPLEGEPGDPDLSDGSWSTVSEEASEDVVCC
The assay is described as follows: SPR; Biacore 3000, HBS buffer (10 mM Hepes-NaOH pH 7.4, 150 mM NaCl, 0.005% Tween-20), 25°C; GST-SH3 captured on CM5 chip via amine-coupled anti-GST antibody; NS5A 3 μM - 100 nM flowed over, in triplicate; 1:1 Langmuir fit. The conditions noted are these: both partners purified. On the technique in general: SPR reads the build-up and loss of mass on a sensor chip optically.

B1: GST-Fyn SH3 domain fusion protein (wild type) (domain or fragment)
chain: not shown
notes: source: expressed and purified as previously described [6]
In the case of B1, the koff worked out at 0.00308 s⁻¹ and the kon worked out at 4930 M⁻¹ s⁻¹.

The koff is the first-order rate constant of dissociation. By kon is commonly meant a measure of how fast the partners come together. High values mean fast association, low ones slow association.

Source of the values: paper PMC2259325, “Hepatitis C virus NS5A protein binds the SH3 domain of the Fyn tyrosine kinase with high affinity: mutagenic analysis of residues within the SH3 domain that contribute to the interaction” (Virology Journal, 2008).
